According to the supplement of paper PMC10126150:
± gives the standard deviation of the averaged measurements.
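Note: ATP exposure 15 min at 22 °C before imaging.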

These sequences were tested on ATP (assay: switch fluorescence ratio, 500 uM ATP over buffer (Cy3 cluster intensity, sum of 5 cycles each) (fold (ratio)); higher = stronger signal-on switching upon ATP binding; sequences stand for … in TCGTCGGCAGCGTCAGATGTGTATAAGAGACAGTTTTTTTTTTTTTTTTTTTTTTTTT…TC). Settings: aptamer strand: ATP DNA aptamer (quencher-CACCTGGGGGAGTATTGCGGAGGAAGG + anchor), 100 nM annealed; ATP concentration: 500 uM.
Method in brief: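 Cy3-labelled switching-strand clusters on a modified Illumina MiSeq flow-cell were annealed to 100 nM quencher-labelled ATP aptamer, imaged in selection buffer, then imaged after 15 min with 500 uM ATP at 22 °C. Five buffer/ATP cycles ran, with NaOH stripping and re-annealing between them. The fluorescence ratio is summed target-cycle over summed buffer-cycle Cy3 intensity per cluster, averaged per switch-domain sequence. Clusters outside 100-1000 RFU were excluded.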
Work on CTTGAAACGT yielded a switch fluorescence ratio of 0.992 ± 0.076. ATATGGGTAC showed a switch fluorescence ratio of 1.034 ± 0.0052. Work on GGATGCTTGT yielded a switch fluorescence ratio of 1.009 ± 0.0092. TTTGATATGT showed a switch fluorescence ratio of 0.996 ± 0.039. With GCCGATGCCT the switch fluorescence ratio was 1.02 ± 0.015. Sequence AGTCCCCCTA has a switch fluorescence ratio of 1.08 ± 0.069. Sequence GGTCTAGAGT has a switch fluorescence ratio of 1 ± 0.014. With AGGGAGTCTT the switch fluorescence ratio was 0.971 ± 0.052. With AACAGCACGA the switch fluorescence ratio was 1.28 ± 0.1. Work on CGCGTCGCTG yielded a switch fluorescence ratio of 0.9811 ± 0.0012. CCAAGGAAAA was tested, and the switch fluorescence ratio was 1.04 ± 0.17. Sequence ATGGTAATGG has a switch fluorescence ratio of 1.02 ± 0.016. TTAATAGATG showed a switch fluorescence ratio of 1 ± 0.029. GGGTCCTACG gave a switch fluorescence ratio of 1.12 ± 0.037. In the case of CGACTAGGAA, the switch fluorescence ratio is reported as 1.04 ± 0.023. With CACGGGTATT the switch fluorescence ratio was 1.013 ± 0.0028. In the case of AGTCGACTTT, the switch fluorescence ratio is reported as 0.997 ± 0.011. In the case of TTGTGATGGC, the switch fluorescence ratio is reported as 1.03 ± 0.11. TCTAAGGGGA gave a switch fluorescence ratio of 1.06 ± 0.11. TATGGAGACC gave a switch fluorescence ratio of 0.9917 ± 0.0049. Sequence GGGGGGAGAG has a switch fluorescence ratio of 0.989 ± 0.045. AGCGCTGGGA gave a switch fluorescence ratio of 1 ± 0.05. With CTTTTGTCGT the switch fluorescence ratio was 1.01 ± 0.028. In the case of TACAGTTTCG, the switch fluorescence ratio is reported as 1.03 ± 0.05. TTGGTGGTTT was tested, and the switch fluorescence ratio was 0.988 ± 0.027. CGGTTGATGC gave a switch fluorescence ratio of 0.997 ± 0.059. Sequence GTTTAAGGAC has a switch fluorescence ratio of 0.991 ± 0.038. Sequence GTGGGGGTTT has a switch fluorescence ratio of 1.05 ± 0.14. For GGGTTTTCGT, the switch fluorescence ratio was 0.9538 ± 0.0032. In the case of GTTTGGGATG, the switch fluorescence ratio is reported as 0.9738 ± 0.0065. With ATGAGGGTGC the switch fluorescence ratio was 0.994 ± 0.054. For CCAAATGAGT, the switch fluorescence ratio was 0.989 ± 0.012. For TGGGCGGCTT, the switch fluorescence ratio was 0.97 ± 0.011. TTTTGAGCGA gave a switch fluorescence ratio of 1.07 ± 0.051. AGGGCGTAAG was tested, and the switch fluorescence ratio was 0.9716 ± 0.0055. With CGAAGCAGCG the switch fluorescence ratio was 1.4 ± 0.044. Sequence TGGGGCGGGA has a switch fluorescence ratio of 1.02 ± 0.08. AAGGACTTGG was tested, and the switch fluorescence ratio was 1.01 ± 0.014. Work on ATTTAATTAA yielded a switch fluorescence ratio of 1.02 ± 0.056. With GGCTGGGTAC the switch fluorescence ratio was 1.12 ± 0.24. Sequence AAGCGAGGGC has a switch fluorescence ratio of 1.06 ± 0.035. GATATACCTT was tested, and the switch fluorescence ratio was 1.15 ± 0.015. In the case of GGATGTATAA, the switch fluorescence ratio is reported as 1.01 ± 0.028. CTAGATATGT was tested, and the switch fluorescence ratio was 0.99 ± 0.011. In the case of GCCTTATATG, the switch fluorescence ratio is reported as 0.968 ± 0.03. GGTTGTTAGG was tested, and the switch fluorescence ratio was 0.9796 ± 0.0055. AAAAAGTATG was tested, and the switch fluorescence ratio was 1 ± 0.026. CACGAGAACT gave a switch fluorescence ratio of 1.1 ± 0.024. With ATATTGAAGG the switch fluorescence ratio was 0.981 ± 0.012. GAAGTGATAT showed a switch fluorescence ratio of 1.206 ± 0.0013. ATTTGGCGTG showed a switch fluorescence ratio of 1.01 ± 0.099. Work on TCGGGTAGTG yielded a switch fluorescence ratio of 1.01 ± 0.026. TATGGGCCTA showed a switch fluorescence ratio of 0.971 ± 0.053. With GTTTAACCGG the switch fluorescence ratio was 1.01 ± 0.035. Work on TAGGCAACGA yielded a switch fluorescence ratio of 1.04 ± 0.063. In the case of GGAAGCTTAA, the switch fluorescence ratio is reported as 1.048 ± 0.0032. Sequence GGCGGATGGA has a switch fluorescence ratio of 1.01 ± 0.037. CGGGTGTGGC was tested, and the switch fluorescence ratio was 1.05 ± 0.015. For ATATTTAAGG, the switch fluorescence ratio was 0.995 ± 0.029. In the case of GTGATTTTGG, the switch fluorescence ratio is reported as 0.9882 ± 0.0042. For AGTATAACGA, the switch fluorescence ratio was 1.06 ± 0.016. For GGCTGGGAGG, the switch fluorescence ratio was 0.99 ± 0.014. Sequence AGTTGGGGGT has a switch fluorescence ratio of 0.998 ± 0.025. Sequence GAATAGTTTT has a switch fluorescence ratio of 1.01 ± 0.02. In the case of TTGATGGGTT, the switch fluorescence ratio is reported as 1.02 ± 0.011. TTCCTATGTG gave a switch fluorescence ratio of 1.01 ± 0.036. AAACAGGGTA was tested, and the switch fluorescence ratio was 0.9906 ± 0.0079. With TCGTACTGGT the switch fluorescence ratio was 0.99 ± 0.068. For ACCTTTTTTG, the switch fluorescence ratio was 0.992 ± 0.024. Sequence TAGATGTTTA has a switch fluorescence ratio of 1.32 ± 0.6. TAAGGGGGAG gave a switch fluorescence ratio of 0.999 ± 0.01. With TGACGTTATC the switch fluorescence ratio was 1.18 ± 0.025. For TTTGGTCTCA, the switch fluorescence ratio was 1 ± 0.02. In the case of AGAAAGGGGG, the switch fluorescence ratio is reported as 0.9954 ± 0.0038. GTTATATAGG showed a switch fluorescence ratio of 0.982 ± 0.046. TTGAGTCGTC gave a switch fluorescence ratio of 0.962 ± 0.011. Sequence TAACATGGCG has a switch fluorescence ratio of 0.959 ± 0.11. AGGAGTTTTT gave a switch fluorescence ratio of 0.98 ± 0.03. Work on GGGGGCAGAA yielded a switch fluorescence ratio of 0.983 ± 0.018. For TATTTTTTGT, the switch fluorescence ratio was 1.01 ± 0.021. For GGTTATTTTT, the switch fluorescence ratio was 1.01 ± 0.036. Sequence TTTTAATTCG has a switch fluorescence ratio of 1.057 ± 0.0035. CTGATGTACG was tested, and the switch fluorescence ratio was 1.06 ± 0.12. ATGCGAAGTG gave a switch fluorescence ratio of 1 ± 0.039. Sequence GGCCAACCCG has a switch fluorescence ratio of 1.0157 ± 0.00094.
